In assay [1] the target is monkey (Macaca fascicularis) 5T4 expressed on CHO-S cells (CHO-fas5T4 cells) (monkey (Macaca fascicularis)) (UniProt Q4R8Y9). As to the kind of experiment: flow cytometry, CHO-fas5T4 cells. (In general: In flow cytometry, cells or beads pass a laser one at a time.)
In assay [2] the target is mouse 5T4 expressed on CHO-S cells (CHO-m5T4 cells) (mouse) (UniProt Q9Z0L0). The assay is described as follows: flow cytometry, CHO-m5T4 cells.
In assay [3] the target is human 5T4 expressed on CHO-S cells (CHO-h5T4 cells) (human) (UniProt Q13641). The assay is described as follows: flow cytometry, CHO-h5T4 cells.
human 5T4 expressed on CHO-S cells (CHO-h5T4 cells) (human), sequence (Q13641 32-355): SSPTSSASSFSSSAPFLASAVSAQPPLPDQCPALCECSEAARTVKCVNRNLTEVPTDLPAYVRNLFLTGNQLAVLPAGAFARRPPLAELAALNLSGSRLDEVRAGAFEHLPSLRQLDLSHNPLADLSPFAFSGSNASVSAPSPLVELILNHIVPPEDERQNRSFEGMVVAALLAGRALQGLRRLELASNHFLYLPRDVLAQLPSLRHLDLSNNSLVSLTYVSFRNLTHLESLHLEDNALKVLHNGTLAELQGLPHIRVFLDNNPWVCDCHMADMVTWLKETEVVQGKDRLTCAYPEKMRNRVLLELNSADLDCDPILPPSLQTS
In assay [4] the target is dog 5T4 expressed on CHO-S cells (CHO-d5T4 cells) (dog). As to the kind of experiment: flow cytometry, CHO-d5T4 cells.
dog 5T4 expressed on CHO-S cells (CHO-d5T4 cells) (dog), sequence (chain, as listed by the source limits assumed): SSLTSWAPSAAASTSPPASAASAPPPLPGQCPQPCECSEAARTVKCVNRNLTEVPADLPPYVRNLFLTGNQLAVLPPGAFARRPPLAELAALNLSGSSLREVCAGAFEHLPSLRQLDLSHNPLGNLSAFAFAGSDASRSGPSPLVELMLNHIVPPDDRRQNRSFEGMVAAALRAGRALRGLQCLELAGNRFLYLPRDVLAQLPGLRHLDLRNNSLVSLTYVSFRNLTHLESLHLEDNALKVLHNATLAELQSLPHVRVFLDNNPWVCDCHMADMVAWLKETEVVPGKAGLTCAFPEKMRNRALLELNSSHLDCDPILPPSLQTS

mouse 5T4 expressed on CHO-S cells (CHO-m5T4 cells) (mouse), sequence (Q9Z0L0 32-361): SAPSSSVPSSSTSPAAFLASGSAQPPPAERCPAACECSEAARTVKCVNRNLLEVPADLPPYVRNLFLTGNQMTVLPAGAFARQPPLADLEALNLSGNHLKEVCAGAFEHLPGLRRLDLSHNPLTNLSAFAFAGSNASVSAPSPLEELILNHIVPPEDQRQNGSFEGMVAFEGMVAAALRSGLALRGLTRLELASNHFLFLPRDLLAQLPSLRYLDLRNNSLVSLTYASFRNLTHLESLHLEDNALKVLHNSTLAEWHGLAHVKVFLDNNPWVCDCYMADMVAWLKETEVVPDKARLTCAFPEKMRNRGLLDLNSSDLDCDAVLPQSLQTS
monkey (Macaca fascicularis) 5T4 expressed on CHO-S cells (CHO-fas5T4 cells) (monkey (Macaca fascicularis)), sequence (Q4R8Y9 35-355): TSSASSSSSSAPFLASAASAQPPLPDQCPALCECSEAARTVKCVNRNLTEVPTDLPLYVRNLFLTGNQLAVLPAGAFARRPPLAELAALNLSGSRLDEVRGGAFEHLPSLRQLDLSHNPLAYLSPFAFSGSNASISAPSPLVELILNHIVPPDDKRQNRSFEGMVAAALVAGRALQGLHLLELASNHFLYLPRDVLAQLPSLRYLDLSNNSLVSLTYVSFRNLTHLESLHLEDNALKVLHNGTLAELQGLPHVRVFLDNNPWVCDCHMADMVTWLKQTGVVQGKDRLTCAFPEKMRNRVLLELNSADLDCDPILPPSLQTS

As to NC, the Percentage of Positive Cells was found to be 1.3% in assay [1], 0.7% in assay [2], 1% in assay [3] and 1% in assay [4].

On to NC + secondary antibody, for which the Percentage of Positive Cells in assay [1] came out at 1.6%; in assay [2] it was 0.2%; in assay [3], 2%; in assay [4] it was 0.2%.

These data come from patent US20260241018A1.
